Assay results from patent US20060024289.
Where a chain is given by its changes, count along the chain named. Numbers in names are those of the source. Where “and” joins values, the source holds several entries; their conditions need not be identical. Identical values can stand only once. Like-named read-outs stand apart in the source and are kept apart here.

Experiments:
[1] = test system: extracellular domain of VEGF-R2 (Flk1) fused to the Fc domain of mouse IgG
[2] = test system: T1, Ac-RRVR-AMC
T1 sequence: RRVR

[3] = target: T2, Ac-IEFD-AMC
T2 chain: XIEFDX

[4] = target: T3, Ac-IEPD-AMC
T3 chain: XIEPDX

[5] = target: T2, Ac-IEFD-AMC; assay: Michaelis-Menten kinetics of fluorogenic tetrapeptide hydrolysis
[6] = target: T3, Ac-IEPD-AMC; assay: as above
[7] = target: T4, Ac-IAPD-ACC
T4 chain: XIAPDX

[8] = target: T5, Ac-IKPD-AMC
T5 chain: XIKPDX

[9] = target: T5, Ac-IKPD-AMC; assay: Michaelis-Menten kinetics of fluorogenic tetrapeptide hydrolysis
[10] = target: T6, Ac-IETD-AMC
T6 chain: XIETDX

[11] = target: T7, Ac-LEPD-AMC
T7 chain: XLEPDX

[12] = target: T6, Ac-IETD-AMC; assay: Michaelis-Menten kinetics of fluorogenic tetrapeptide hydrolysis
[13] = target: T8, Ac-LEFD-AMC
T8 chain: XLEFDX

[14] = target: T9, extracellular domain of VEGF-R2 (Flk1) fused to the Fc domain of mouse IgG
T9 chain: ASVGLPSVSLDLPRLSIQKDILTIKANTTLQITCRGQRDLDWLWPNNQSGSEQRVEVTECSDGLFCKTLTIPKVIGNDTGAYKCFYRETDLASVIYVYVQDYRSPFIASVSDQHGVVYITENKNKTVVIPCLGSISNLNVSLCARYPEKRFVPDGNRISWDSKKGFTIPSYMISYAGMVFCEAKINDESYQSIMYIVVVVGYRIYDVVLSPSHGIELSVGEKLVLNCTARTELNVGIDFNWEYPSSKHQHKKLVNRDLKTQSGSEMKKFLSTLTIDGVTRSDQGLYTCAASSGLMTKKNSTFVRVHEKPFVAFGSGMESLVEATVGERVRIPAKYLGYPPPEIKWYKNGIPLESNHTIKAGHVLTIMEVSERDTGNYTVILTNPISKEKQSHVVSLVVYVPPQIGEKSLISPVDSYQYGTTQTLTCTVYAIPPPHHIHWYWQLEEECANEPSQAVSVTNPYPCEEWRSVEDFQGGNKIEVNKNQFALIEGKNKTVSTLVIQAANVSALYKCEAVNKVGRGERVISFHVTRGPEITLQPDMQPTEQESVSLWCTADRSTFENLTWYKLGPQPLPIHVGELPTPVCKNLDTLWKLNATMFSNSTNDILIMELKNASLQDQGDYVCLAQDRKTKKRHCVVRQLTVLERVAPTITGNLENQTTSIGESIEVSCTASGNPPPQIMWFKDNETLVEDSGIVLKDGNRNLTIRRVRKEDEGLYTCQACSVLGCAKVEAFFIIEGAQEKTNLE

[15] = target: T8, Ac-LEFD-AMC; assay: Michaelis-Menten kinetics of fluorogenic tetrapeptide hydrolysis
[16] = target: T7, Ac-LEPD-AMC; assay: as above

“granzyme B mutein CB10 (I99A/N218A/R192M)” was tested, and the “cleavage of purified VEGFR2-Fc (SDS-PAGE)” value (from here on “cleavage … (SDS-PAGE)”) [1] was “The purified VEGFR2-Fc is efficiently cleaved by wild-type and mutant granzyme B ... None of the protease variants (wild-type or mutant) cleave the Fc domain” and the “in vitro cleavage of soluble Flk1-Fc (gel, FIG. 10)” value (shortened to “in vitro cleavage”) [1] was “Wild-type granzyme B and the listed muteins cleave the VEGFR-Fc receptor”.

With “granzyme B mutein CB05 (I99A/N218A/K172D)” the “cleavage … (SDS-PAGE)” value [1] was “The purified VEGFR2-Fc is efficiently cleaved by wild-type and mutant granzyme B ... None of the protease variants (wild-type or mutant) cleave the Fc domain” and the “in vitro cleavage” value [1] was “Wild-type granzyme B and the listed muteins cleave the VEGFR-Fc receptor”.

MT-SP1 mutant D217F was tested, and the “cleavage … (SDS-PAGE)” value [1] was “Several mutants (N175D and D217F) cleave the receptor with higher efficiency than wild-type”.

For MT-SP1 mutein CB18 (L172D), the “cleavage … (SDS-PAGE)” value [1] was “The mutant L172D cleaves full-length VEGFR2 but at a reduced rate compared to the wild-type”.

For MT-SP1 mutein CB155 (Y146D/K224F), the “kcat/Km (specificity constant)” value [2] was “cut the Ac-RRVR-AMC substrate at 2.2 and 2.3×10^5 M^-1s^-1, respectively”.

With “granzyme B mutein CB06 (I99A/N218A/Y174E)” the “cleavage … (SDS-PAGE)” value [1] was “The purified VEGFR2-Fc is efficiently cleaved by wild-type and mutant granzyme B ... None of the protease variants (wild-type or mutant) cleave the Fc domain” and the “in vitro cleavage” value [1] was “Wild-type granzyme B and the listed muteins cleave the VEGFR-Fc receptor”.

With MT-SP1 mutant N175D the “cleavage … (SDS-PAGE)” value [1] was “Several mutants (N175D and D217F) cleave the receptor with higher efficiency than wild-type”.

For MT-SP1 mutein CB159 (F99I/L172D/Q175D), the “kcat/Km (specificity constant)” value [2] was “cut the Ac-RRVR-AMC substrate at 2.2 and 2.3×10^5 M^-1s^-1, respectively” and the “preference of RRVR over RQAR substrate (ratio of kcat/Km)” value [2] was “prefer RRVR to RQAR by greater than 8 fold”.

For “granzyme B mutein CB07 (I99A/N218A/Y174D)”, the “cleavage … (SDS-PAGE)” value [1] was “The purified VEGFR2-Fc is efficiently cleaved by wild-type and mutant granzyme B ... None of the protease variants (wild-type or mutant) cleave the Fc domain” and the “in vitro cleavage” value [1] was “Wild-type granzyme B and the listed muteins cleave the VEGFR-Fc receptor”.

For “granzyme B mutein CB02 (I99A/N218A/L171E)”, the “cleavage … (SDS-PAGE)” value [1] was “The purified VEGFR2-Fc is efficiently cleaved by wild-type and mutant granzyme B ... None of the protease variants (wild-type or mutant) cleave the Fc domain” and the “in vitro cleavage” value [1] was “Wild-type granzyme B and the listed muteins cleave the VEGFR-Fc receptor”.

B1: rat granzyme B I99A (protein)
chain: IIGGHEAKPHSRPYMAYLQIMDEYSGSKKCGGFLIREDFVLTAAHCSGSKINVTLGAHNIKEQEKMQQIIPVVKIIPHPAYNSKTASNDIMLLKLKSKAKRSSAVKPLNLPRRNVKVKPGDVCYVAGWGKLGPMGKYSDTLQEVELTVQEDQKCESYLKNYFDKANEICAGDPKIKRASFRGDSGGPLVCKKVAAGIVSYGQNDGSTPRAFTKVSTFLSWIKKTMKKS
Work on B1 yielded a kcat [3] of 0.24 s⁻¹, a kcat/Km [3] of 270 M⁻¹ s⁻¹ and a kcat [4] of 0.14 s⁻¹. The kcat/Km [4] was 57 M⁻¹ s⁻¹, the Km [5] was 880 µM and the Km [6] was 2500 µM.

B2: rat granzyme B N218A/R192E (protein)
chain: B1 chain with A86I, R181E, N203A
For B2, the Kcat/Km [7] was 15 M⁻¹ s⁻¹, the Kcat/Km [4] was 10 M⁻¹ s⁻¹ and the Kcat/Km [8] was 73 M⁻¹ s⁻¹. The Km [6] was > 2000 µM and the Km [9] was > 2000 µM.

B3: rat granzyme B I99R (protein)
chain: B1 chain with A86R
In the case of B3, the Kcat [3] is reported as 0.47 s⁻¹, the Kcat/Km [3] is reported as 505 M⁻¹ s⁻¹ and the Kcat [4] is reported as 0.59 s⁻¹. For the same molecule, the Kcat/Km [4] was 330 M⁻¹ s⁻¹, the kcat [4] was “kcat is 0.47 s^-1 and 0.55 s^-1, respectively” and the Kcat [10] was 0.3 s⁻¹. The Kcat/Km [10] was 150 M⁻¹ s⁻¹, the Kcat/Km [11] was 12 M⁻¹ s⁻¹ and the Km [5] was 930 µM and The Km of the P2-Phe substrate (980 µM). The Km [6] was 1800 µM and the Km [12] was 2000 µM.

B4: rat granzyme B I99A/N218A (protein)
chain: B1 chain with N203A
B4 was tested, and the kcat [3] was 0.26 s⁻¹, the kcat/Km [3] was 290 M⁻¹ s⁻¹ and the ΔΔGT^‡ [3] was -1.33 kcal/mol. It also gave a kcat [4] of 0.087 s⁻¹, a kcat/Km [4] of 32 M⁻¹ s⁻¹ and a ΔΔGT^‡ [4] of 0 kcal/mol. The kcat [13] was 0.047 s⁻¹, the kcat/Km [13] was 37 M⁻¹ s⁻¹ and the ΔΔGT^‡ [13] was -0.09 kcal/mol. For the same molecule, the kcat/Km [11] was 1.3 M⁻¹ s⁻¹, the ΔΔGT^‡ [11] was 1.92 kcal/mol and the “cleavage … (SDS-PAGE)” value [14] was “The purified VEGFR2-Fc is efficiently cleaved by wild-type and mutant granzyme B ... None of the protease variants (wild-type or mutant) cleave the Fc domain”. For the same molecule, the “in vitro cleavage” value [14] was “Wild-type granzyme B and the listed muteins cleave the VEGFR-Fc receptor”, the Km [5] was 890 µM and the Km [6] was 2700 µM. For the same molecule, the Km [15] was 1300 µM and the Km [16] was > 2000 µM.

B5: rat granzyme B N218A/R192A (protein)
chain: B1 chain with A86I, R181A, N203A
B5 showed a Kcat/Km [7] of 29 M⁻¹ s⁻¹, a Kcat [4] of 0.16 s⁻¹ and a Kcat/Km [4] of 92 M⁻¹ s⁻¹. For the same molecule, the Kcat/Km [8] was 55 M⁻¹ s⁻¹, the Km [6] was 1700 µM and the Km [9] was > 2000 µM.

B6: rat granzyme B Y174A (protein)
chain: B1 chain with A86I, Y161A
Work on B6 yielded a kcat [4] of 0.87 s⁻¹, a kcat/Km [4] of 470 M⁻¹ s⁻¹ and a Km [6] of 1000 µM.

B7: rat granzyme B N218A (protein)
chain: B1 chain with A86I, N203A
B7 gave a kcat [4] of 1.6 s⁻¹, a kcat/Km [4] of 2200 M⁻¹ s⁻¹ and a kcat [8] of 0.38 s⁻¹. The kcat/Km [8] was 220 M⁻¹ s⁻¹, the Km [6] was 700 µM and the Km [9] was 1800 µM.

B8: rat granzyme B I99F (protein)
chain: B1 chain with A86F
B8 gave a Kcat/Km [3] of 410 M⁻¹ s⁻¹, a Kcat [4] of 0.56 s⁻¹ and a Kcat/Km [4] of 510 M⁻¹ s⁻¹. The “specificity constant (kcat/Km)” value [4] was 1100 M⁻¹ s⁻¹, the Kcat [10] was 0.3 s⁻¹ and the Kcat/Km [10] was 153 M⁻¹ s⁻¹. For the same molecule, the Kcat/Km [11] was 200 M⁻¹ s⁻¹, the Km [6] was 500 µM and the Km [12] was 1900 µM.

B9: rat granzyme B N218T (protein)
chain: B1 chain with A86I, N203T
For B9, the Kcat [4] was 3.6 s⁻¹, the Kcat/Km [4] was 6200 M⁻¹ s⁻¹ and the Kcat [8] was 1.1 s⁻¹. It also gave a Kcat/Km [8] of 600 M⁻¹ s⁻¹, a Km [6] of 580 µM and a Km [9] of 1800 µM.

B10: wild-type rat granzyme B (protein)
chain: IIGGHEAKPHSRPYMAYLQIMDEYSGSKKCGGFLIREDFVLTAAHCSGSKINVTLGAHNIKEQEKMQQIIPVVKIIPHPAYNSKTISNDIMLLKLKSKAKRSSAVKPLNLPRRNVKVKPGDVCYVAGWGKLGPMGKYSDTLQEVELTVQEDQKCESYLKNYFDKANEICAGDPKIKRASFRGDSGGPLVCKKVAAGIVSYGQNDGSTPRAFTKVSTFLSWIKKTMKK
For B10, the Kcat/Km [7] was 110 M⁻¹ s⁻¹, the kcat/Km [7] was 110 M⁻¹ s⁻¹ and the Kcat [3] was 0.15 s⁻¹. For the same molecule, the Kcat/Km [3] was 1000 M⁻¹ s⁻¹, the kcat [3] was 0.15 s⁻¹ and 0.154 s⁻¹ and the kcat/Km [3] was 1000 M⁻¹ s⁻¹. For the same molecule, the ΔΔGT^‡ [3] was 0.71 kcal/mol, the Kcat [4] was 1.2 s⁻¹ and the Kcat/Km [4] was 3300 M⁻¹ s⁻¹. It also gave a kcat [4] of 1.2 s⁻¹, a kcat/Km [4] of 3300 M⁻¹ s⁻¹ and a ΔΔGT^‡ [4] of 0 kcal/mol. It also gave a Kcat [10] of 0.39 s⁻¹, a Kcat/Km [10] of 1600 M⁻¹ s⁻¹ and a Kcat [8] of 0.15 s⁻¹. It also gave a Kcat/Km [8] of 99 M⁻¹ s⁻¹, a kcat [8] of 0.15 s⁻¹ and a kcat/Km [8] of 99 M⁻¹ s⁻¹. For the same molecule, the kcat [13] was 0.0087 s⁻¹, the kcat/Km [13] was 14 M⁻¹ s⁻¹ and the ΔΔGT^‡ [13] was 3.26 kcal/mol. The Kcat [11] was 0.096 s⁻¹, the Kcat/Km [11] was 87 M⁻¹ s⁻¹ and the kcat [11] was 0.096 s⁻¹. For the same molecule, the kcat/Km [11] was 88 M⁻¹ s⁻¹, the ΔΔGT^‡ [11] was 2.18 kcal/mol and the “cleavage … (SDS-PAGE)” value [14] was “The purified VEGFR2-Fc is efficiently cleaved by wild-type and mutant granzyme B ... None of the protease variants (wild-type or mutant) cleave the Fc domain”. The “in vitro cleavage” value [14] was “Wild-type granzyme B and the listed muteins cleave the VEGFR-Fc receptor”, the Km [5] was 150 µM and 153 µM and the Km [6] was 370 µM. For the same molecule, the Km [12] was 250 µM, the Km [9] was 1500 µM and 1600 µM and the Km [15] was 600 µM. For the same molecule, the Km [16] was 1100 µM.
